# Test results taken from patent US20250326867A1, “De novo designed chlorophyll special pair proteins” (University of Washington, priority 2024, published 2025).
# Changes are numbered by the printed parent chain.
# B1: SP3 (designed binder)
# chain: SGSSEELARESAEAAWRLAQAGTRLMLAWIRGDLKEIAEALIELARAVQELARVAKEYGNDELAKTAALLAAHVAMLAILVLIRAIKEGDDEVRELAKTAIKLASTAAKIVLDALPTAEEVRQITLLAKLAEEAADKKNEDSALAVGIAAAAVLLALLALEAAQKAGIEEAEKGARLLLKLAMDAARKKNPEEALAVFNAALDVSIALKLLQSAKRAGSEETRKLAEEMLRQALERARK
# notes: Designed homodimer subunit, after TEV cleavage
# B2: JIa (designed binder)
# chain: B1 chain with L25A, M26A, W29A, I37L, M76L, L155A, F198L, K209R
# notes: as for B1
# B3: JId (designed binder)
# chain: B1 chain with G22A, M26V, W29V, L69F, M76L, L80I, F198L, K209R
# notes: as for B1
# B4: JIc (designed binder)
# chain: B1 chain with G22A, M26V, W29L, I37V, L69W, L80Y, A151I, L155I, F198L, K209R
# notes: as for B1
# B5: JIe (designed binder)
# chain: B1 chain with G22A, L25I, W29V, L69F, M76L, L80I, A151M, L155I, K209R
# notes: as for B1
# B6: tj79C2-H69B (designed binder)
# chain: SGSGSREDELHARYLILSAELAAERADIAAERTGDPRVRELARELKRLAQEAAEEVKRDPSSSDVNKALLLITHAILIAVAALEAAERTGDPEVRELARELVRLAVEAAEEVQRNPSSSDVNRALFLIMMAIMMAVKALEAAERTGDPEVRELARELVRLAVEAAEEVQRNPSSKEVDMALLLILIAILEAVLSLLRAERSGDPEKREKARERVREAVERAEEVQRDPSGW
# notes: as for B1
# B7: tj79C2-H121B (designed binder)
# chain: SGSGSREDELLARLLLLLAELAAERADIAAERTGDPRVRELARELKRLAQEAAEEVKRDPSSSDVLMALLLIIMAIEAAVEALEAAERTGDPEVRELARELVRLAVEAAEEVQRNPSSSDVWWALHLILFAIQLAVRALEAAERTGDPEVRELARELVRLAVEAAEEVQRNPSSKEVDMALLLILIAILEAVLSLLRAERSGDPEKREKARERVREAVERAEEVQRDPSGW
# notes: as for B1
# B8: tj79C2-H121C (designed binder)
# chain: B7 chain with L16I, A68L, I73V, M74L, E77Q, W122F, W123M, R137Q, V168L, D178Q
# notes: as for B1
# B9: D_3_114_5 (designed binder)
# chain: SGSGSSDFEFKMLATWAKMAITAAERAAGTDPELQEMVALIKKELEQAERTFRNGDKSEAMRQLEFVLTAANAVLAVALAANMAGTDPELQEMVDRILKQLKEAIRTFQNGDQEEAEDQLLFVLAAATAVAVVAWAKILAGTDPELQEMVKQILEELKQAIETWARGDKEKAATQLLFVMWAAHAVAAIALAANVAGTDPRLQQQVKEILEKLKEAIETFQKGDEEQAFRQLAEVLAEAMLVAIRALLTN
# notes: as for B1
# B10: JA (designed binder)
# chain: SGSGSWEEEAADKAIEIAEKVFRLKKSGTSEDEIAEEVAREISEVIRTLKESGSSEEVIALALLMIILGVVMALIANGVSIREQLDISATILYEVAREQGNEEALEAIEEITRLAEEIKEEGGSILAAHILTMAGLLVAALPSEEAAEVAKEIAKAVKAAVEAEKDGKSDEAMLALIRLILAIMAALFNRSKYSLEMVRRIAKEAEQLAEDAREGK
# notes: as for B1
# B11: D13_H60A (designed binder)
# chain: SGSGSEEKEWMLLTAMLIMAIKTLKEMLEEDPNDEEIKKILELLWQISKTQQDDPHNEEQKEWLHLLLIIIMALRLVQEMLKEDPNDEEIEKILELLKQILRTLREDPHNEEQKEWLILLFIIIALLDSVQEMLKEDPNDEEIEKILELLKQILRTLREDPHNEEQKQWLIQLINALILLLFIQEKLKEDPNDEEAEEELERLKEQLRRLRE
# notes: as for B1
# B12: D13_H60B (designed binder)
# chain: B11 chain with M11Q, A15W, M16L, A20I, L68A, I69A, M72L, E115A, I118L, F121V
# notes: as for B1
# B13: JC (designed binder)
# chain: SGSTEKLKKVLERVRELAERAKESTSPEEALIIALLVSSLAIAAVMLDPSEEASTAVKIAIKIAEEVAKRVSDSQLSASIALSIASLALVAAEAAGDEELSKLALRLAKLAAELAKDALRIAEERGNAIDAAIAVGIVVMVAAILLQLAKLLGSEEALKEALEVAEEAARLAKRVLELAERVGDPQVALAAVGHVQMVAILLAQIARESGSEEAKERAERVARESMELAERVLELMRREGKW
# notes: as for B1
# B14: JB (designed binder)
# chain: SGSTEELKKVLEDVRELAERAKESTDPEEALIIAILVIIRALAAVALDPSEEASTAVKIAIKIAEEVAKRVSDSELSASIALLIANLALVAAKAAGDEELSKLALRLAKLAAELAKDALRIAEERGNAWQAAIAVGVVVMVATILLALAKQLGSEEALKEALEVAEEAARLAKRQLELAERVGDPIVALAAVGHVFMVAMLLAQIARESGSEEAKERAKRVAEEAEELAERVYELMRREGK
# notes: as for B1
# B15: tj79C2-H132A (designed binder)
# chain: SGSGSREDELRARLLILLAELAAETLDIIAERTGDPRVRELARELIRLLQEAAEEVKRDPSSSDVNEALKLIVEAIFMAIFILLFAEQTGDPEVRELARELVRLAVEAAEEVQRNPSSSDVNEALKLIIQAIILAVHALLAAEKTGDPEVRELARELVRLAVEAAEEVQRNPSSKEVDMALLLILIAILEAVLSLLRAQRSGDPEKREKARERVREAVERAEEVQRDPSGW
# notes: as for B1
# B16: tj79C2-H121A (designed binder)
# chain: SGSGSREDELIARYQILLAELAAERADIAAERTGDPRVRELARELKRLAQEAAEEVKRDPSSSDVNMALLLILLMIELAVRALEAAERTGDPEVRELARELVRLAVEAAEEVQRNPSSSDVWQALHLIMLAIWAAVAALEAAERTGDPEVRELARELVRLAVEAAEEVQRNPSSKEVYMALLLILIAILEAVLSLLRAERSGDPEKREKARERVREAVERAEEVQRDPSGW
# notes: as for B1
# B17: D_3_114_2 (designed binder)
# chain: SGSGSSDEEFKWLATWAKMAITAAERAAGTDPELQEMVALIKKELEQAERTFRNGDKSEAWRQLVFVAIAAAAVLAVALAANAAGTDPELQEMVDRILKQLKEAIRTFQNGDQEEAETQLFFVLLAAAAVAVVALALIWAGTDPELQEMVKQILEELKQAIETFARGDKEKALTQLLFVLWAAHAVLWIAIAANTAGTDPRLQQQVKEILEKLKEAIETFQKGDEEQAFRQLAEVLAEAVLVALRAMKTN
# notes: as for B1
# B18: tj79C2-H125A (designed binder)
# chain: SGSGSREDELWARYTLLLAELAAERADIAAERTGDPRVRELARELKRLAQEAAEEVKRDPSSSDVYLALILIVMAIYMAVLALEAAERTGDPEVRELARELVRLAVEAAEEVQRNPSSSDVNKALLLIVHAIMAAVAALEAAERTGDPEVRELARELVRLAVEAAEEVQRNPSSKEVDMALLLIQIAILEAVLSLLRAERSGDPEKREKARERVREAVERAEEVQRDPSGW
# notes: as for B1
# B19: SP3x (designed binder)
# chain: SGSSEELARESAEAAWRLAQASTRATLAMIRGDLKELAEALIELARAVQELARVAKEYGNDELAKTAALLAAHVAMLAIWVLIRAIKEGDDEVRELAKTAIKLASTAAKIVLDALPTAEEVRQITLLAKLAEEAADKKNEDSALAVGIAAIAVIIALWALEAAQKAGIEEAEKGARLLLKLAMDAARKKNPEEALAVLNAALDVSIALQLLQSAKRAGSEETRKLAEEMLRQALERARKKN
# notes: as for B1
# B20: D13_H11A (designed binder)
# chain: SGSGSEEKEWQAMTLHLIFAIKILKEMLEEDPNDEEIKKILELLWQISKTQQDDPHNEEQKEWLMLLLLIIMALRLVQEMLKEDPNDEEIEKILELLKQILRTLREDPHNEEQKEWLILLLIIILLLDSVQEMLKEDPNDEEIEKILELLKQILRTLREDPHNEEQKQWLIQLINALILLLFIQEKLKEDPNDEEAEEELERLKEQLRRLRE
# notes: as for B1
# B21: D13_H11C (designed binder)
# chain: B20 chain with Q11A, A12I, L15A, F19Y, I23V, L69G, M72L, I118A, L121V
# notes: as for B1
# B22: D13_H11B (designed binder)
# chain: B20 chain with L15A, F19Y, M65I, L69I, M72L, I118S, L121F, L125A
# notes: as for B1
# B23: D_3_114_3 (designed binder)
# chain: SGSGSSDELFKWLATEAKMAITAAERLAGTDPELQEMVALIKKELEQAERTFRNGDKSEAMRQLLFVLMAANAVAAVAAAANMAGTDPELQEMVDRILKQLKEAIRTFQNGDQEEAMTQLAFVLLAAAAVFVVAWALILAGTDPELQEMVKQILEELKQAIETFARGDKEKALTQLLFVLWAAHAVAWIALAALLAGTDPRLLQQVKEILEKLKEAIETFQKGDEEQAFRQLAEVLAEAILVAIRAAKTN
# notes: as for B1
# B24: D_3_114_4 (designed binder)
# chain: SGSGSSDEEFKFLATMAKMAITAAERAAGTDPELQEMVALIKKELEQAERTFRNGDKSEAQRQLWFVWVAALAVAAVALAANAAGTDPELQEMVDRILKQLKEAIRTFQNGDQEEAETQLRFVLMAAAAVAVVALARLWAGTDPELQEMVKQILEELKQAIETFARGDKEKALTQLLFVLWAAHAVLWIAIAANLAGTDPRLQQQVKEILEKLKEAIETFQKGDEEQAFRQLAEVLAEAVLVALRARKTN
# notes: as for B1
# Target: the molecule itself
# Assay: size-exclusion chromatography, self-association (homodimer)
# Protocol: FIG. 7. Size exclusion chromatography (SEC) traces of purified SP apo-proteins. Proteins were injected as 0.5 mL aliquots onto a Superdex™ 200 Increase 10/300 GL column (Cytiva Life Sciences). The narrow, isolated peaks indicate that the samples contain monodisperse protein. Running buffer was 150 mM NaCl, 10 mM Tris at pH 8. Proteins were purified by Ni-NTA and one round of SEC prior to collecting the data shown.
# Proteins were purified by Ni-NTA and size-exclusion chromatography (SEC) (FIG. 7). […] A slightly lower predicted radius of gyration (Rg) value compared to experimental SAXS data is likely due to a dense hydration shell around the highly charged SP proteins (Svergun et al. 1998; Kim et al. 2016). The far ultraviolet (UV) circular dichroism (CD) spectra of three SP proteins that expressed in high yield (≥140 mg/L) show the proteins are highly α-helical with and without the synthetic Chl a derivative, Zn pheophorbide a methyl ester (ZnPPaM). Thermal denaturation curves monitored by the CD signal at 222 nm indicate that all three proteins are highly thermostable in the apo- and holo-states (FIG. 2).
row,Protein,binding result
1,B1,binds
2,B2,binds
3,B3,binds
4,B4,binds
5,B5,binds
6,B6,binds
7,B7,binds
8,B8,binds
9,B9,binds
10,B10,binds
11,B11,binds
12,B12,binds
13,B13,binds
14,B14,binds
15,B15,binds
16,B16,binds
17,B17,binds
18,B18,binds
19,B19,binds
20,B20,binds
21,B21,binds
22,B22,binds
23,B23,binds
24,B24,binds
